Assay results from paper PMC6482348.
Blank lines part the entries; values can stand above or below the binder they belong to.

Columns and labels:
[1] = biological target: T1, endogenous mouse PrxI (mouse (endogenous in BMDMs)), P35700; test: nonreducing SDS-PAGE and immunoblot of disulfide-linked complexes; details: remark: other sources report otherwise
T1 chain: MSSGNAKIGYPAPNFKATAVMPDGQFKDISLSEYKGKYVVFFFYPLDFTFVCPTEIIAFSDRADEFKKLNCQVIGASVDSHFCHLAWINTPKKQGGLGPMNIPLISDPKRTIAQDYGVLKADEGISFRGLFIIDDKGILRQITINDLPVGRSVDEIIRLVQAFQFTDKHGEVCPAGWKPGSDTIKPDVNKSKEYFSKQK

[2] = biological target: T2, endogenous mouse PrxII (mouse (endogenous in MEFs and BMDMs)), Q61171; test: as above; details: remark: other sources report otherwise
T2 chain: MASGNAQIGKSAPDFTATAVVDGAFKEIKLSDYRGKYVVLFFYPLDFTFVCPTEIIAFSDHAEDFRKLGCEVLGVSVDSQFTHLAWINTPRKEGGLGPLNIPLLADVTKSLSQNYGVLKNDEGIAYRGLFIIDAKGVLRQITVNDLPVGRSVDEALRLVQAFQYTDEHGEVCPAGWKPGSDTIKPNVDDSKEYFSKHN

stoichiometry N [1]: 2
B1: endogenous mouse PrxI, P35700 1-199 (enzyme)
chain: T1 chain

stoichiometry N [2]: 2
B2: endogenous mouse PrxII, Q61171 1-198 (enzyme)
chain: T2 chain
